Patent US20240067721A1 (UNIVERSITY OF BIRMINGHAM, published 2024)

T1: recombinant GPVI-Fc (dimeric; D1 and D2 domains of GPVI fused to the Fc domain from IgG) (human, UniProt Q9HCN6 22-203)
T1 construct: range 22-203; also called GPVI-Fcγ; dimeric GPVI; not shown: Factor Xa cleavable junction and Fc domain from IgG (Sigplg+ vector)
T1 sequence (looked up): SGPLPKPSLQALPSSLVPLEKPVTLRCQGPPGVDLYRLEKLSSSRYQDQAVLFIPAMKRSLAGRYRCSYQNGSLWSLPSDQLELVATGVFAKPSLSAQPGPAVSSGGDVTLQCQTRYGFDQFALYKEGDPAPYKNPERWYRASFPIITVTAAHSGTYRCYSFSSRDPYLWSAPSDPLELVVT

T2: GPVI on human washed platelets (human, UniProt Q9HCN6 21-339)
T2 construct: whole, on cells; also called platelet GPVI
T2 sequence (looked up): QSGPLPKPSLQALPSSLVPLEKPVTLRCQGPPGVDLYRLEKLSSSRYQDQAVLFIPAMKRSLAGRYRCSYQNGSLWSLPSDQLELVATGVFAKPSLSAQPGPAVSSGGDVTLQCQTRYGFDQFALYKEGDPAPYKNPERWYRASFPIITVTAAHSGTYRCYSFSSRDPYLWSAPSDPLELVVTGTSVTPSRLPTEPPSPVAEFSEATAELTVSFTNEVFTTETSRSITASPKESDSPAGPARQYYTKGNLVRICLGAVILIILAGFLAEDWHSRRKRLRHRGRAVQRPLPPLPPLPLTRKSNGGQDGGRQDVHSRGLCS

B1: un-tagged Nb2 (thrombin-cleaved nanobody 2) (VHH)
VHH: QVQLQESGGGLVQPGGSLRLSCAAAGFTFDYYAIAWFRQAPGKEREGVSCISSSDGTTYYADSVKGRFTISKDNAKNTMYLQMNSLKPEDTAVYYCATSPLYSTNDRCISEDYDYWGQGTQVTVSS
notes: also called un-tagged nanobody 2
B2: Nb28 fluorescently labelled with AlexaFluor 647 (Nb28-AF647) (VHH)
VHH: QVQLQESGGGLVQAGDSLRLSCAASGTYSMGWFRQAPGKEREFVAAISWSGGRTNYADSVKGRFTISRDNAKNTVYLQMNSLKPEDTAVYYCSAAIYDNVSSRIGSYTYWGQGTQVTVSS
modifications: AlexaFluor 647 dye on free amino groups (NHS-ester labelling)
notes: also called labelled Nb28

Experiments:
[1] = biological target: T1, recombinant GPVI-Fc (dimeric; D1 and D2 …); assay: displacement of GPVI-Fc (100 nM) from collagen surface; Nb2 freeze-thawed, day 0
Procedure: (§1) Freshly made un-tagged nanobody 2 (4.2 mg/ml in PBS) was stored at 4° C. over a period of 72 hours. Samples were collected at 0, 24, 48 and 72 hours for ELISA and nanodrop analysis. 1 ml of Nb2 was also filtered using a Whatman 0.2 um syringe filter, and 50 μL was snap-frozen and thawed to determine the effects of both syringe filtering and freeze-thawing on nanobody function. The freeze-thawed sample was only tested between 0-48 hours after thawing. ELISA displacement assays were performed on each sample as described in ‘Solid-phase binding assay’. Nb2 concentrations were determined at each time point by measuring absorbance a 280 nm using a nanodrop ND-1000 spectrophotometer.
(§2) Nb2 stability at 4° C. was tested by comparing the ability for nb2 to displace GPVI-Fc binding to a collagen surface after 0-, 24-, 48- and 72-hours storage at 4° C. (FIG. 8). Nb2 was stored in PBS with no added preservatives. In addition, samples of nb2 that were freeze-thawed and an additional sample that had been filtered were also tested. […] There was an observed reduction in protein concentration of approximately 3% when filtering but it is not abnormal for small losses in protein yield when filtering.

[2] = biological target: T1, recombinant GPVI-Fc (dimeric; D1 and D2 …); assay: displacement of GPVI-Fc (100 nM) from collagen surface; Nb2 freeze-thawed, day 1
Procedure: as §1, §2

[3] = biological target: T1, recombinant GPVI-Fc (dimeric; D1 and D2 …); assay: displacement of GPVI-Fc (100 nM) from collagen surface; Nb2 freeze-thawed, day 2
Procedure: as §1, §2

[4] = biological target: T1, recombinant GPVI-Fc (dimeric; D1 and D2 …); assay: displacement of GPVI-Fc (100 nM) from collagen surface; Nb2 syringe-filtered, day 0
Procedure: as §1, §2

[5] = biological target: T1, recombinant GPVI-Fc (dimeric; D1 and D2 …); assay: displacement of GPVI-Fc (100 nM) from collagen surface; Nb2 syringe-filtered, day 1
Procedure: as §1, §2

[6] = biological target: T1, recombinant GPVI-Fc (dimeric; D1 and D2 …); assay: displacement of GPVI-Fc (100 nM) from collagen surface; Nb2 syringe-filtered, day 2
Procedure: as §1, §2

[7] = biological target: T1, recombinant GPVI-Fc (dimeric; D1 and D2 …); assay: displacement of GPVI-Fc (100 nM) from collagen surface; Nb2 syringe-filtered, day 3
Procedure: as §1, §2

[8] = biological target: T1, recombinant GPVI-Fc (dimeric; D1 and D2 …); assay: displacement of GPVI-Fc (100 nM) from collagen surface; Nb2 stored at 4 °C, non-filtered, day 0
Procedure: as §1, §2

[9] = biological target: T1, recombinant GPVI-Fc (dimeric; D1 and D2 …); assay: displacement of GPVI-Fc (100 nM) from collagen surface; Nb2 stored at 4 °C, non-filtered, day 1
Procedure: as §1, §2

[10] = biological target: T1, recombinant GPVI-Fc (dimeric; D1 and D2 …); assay: displacement of GPVI-Fc (100 nM) from collagen surface; Nb2 stored at 4 °C, non-filtered, day 2
Procedure: as §1, §2

[11] = biological target: T1, recombinant GPVI-Fc (dimeric; D1 and D2 …); assay: displacement of GPVI-Fc (100 nM) from collagen surface; Nb2 stored at 4 °C, non-filtered, day 3
Procedure: as §1, §2

[12] = biological target: T2, GPVI on human washed platelets; assay: flow cytometry on washed platelets, 100 nM Nb28-AF647, with or without 500 nM Nb2
Procedure: a) Washed platelets were incubated in an aggregometer at 37° C. and 1200 rpm in the presence of Nb28 or PBS control prior to stimulation with 10 μg/ml Horm collagen and aggregation traces captured. Nb28 had no effect on aggregation. b) Thrombin inhibited whole blood was preincubated with either vehicle (PBS) or 500 nM of unlabelled Nb28 and then flowed over fibrillar collagen I utilising the Maastricht flow chamber at 1000/s. None of the five investigated parameters of thrombus formation or platelet activation were affected by Nb28. Each data point represents one donor (n=4), unpaired non-parametric t-test was utilized to test for significance.
Washed platelets were preincubated with 500 nM Nb2 or PBS vehicle control for 10 min, followed by addition of 100 nM Nb28-AF647 and immediate fixation. 50,000 events were acquired and Nb28-AF647 signal (FL4) measured with an Accuri C6 flow cytometer (BD) and data processed with the BD Accuri C6 Software.

Binder	IC50 [1] [nM]	IC50 [2] [nM]	IC50 [3] [nM]	IC50 [4] [nM]	IC50 [5] [nM]	IC50 [6] [nM]	IC50 [7] [nM]	IC50 [8] [nM]	IC50 [9] [nM]	IC50 [10] [nM]	IC50 [11] [nM]	binding result [12]
B1	46.5	29.8	44	45.7	40.3	35.2	37.1	37	54.4	34	32.4	–
B2	–	–	–	–	–	–	–	–	–	–	–	binds
